According to paper PMC12133307, “Structure, kinetics, and mechanism of Pseudomonas putida sulfoquinovose dehydrogenase, the first enzyme in the sulfoglycolytic Entner-Doudoroff pathway” (Biochemical Journal, 2025):

Biological target: the molecule itself
Assay: SEC-MALS; SEC-MALLS, Superdex S200 10/300 GL, 100 mM Tris pH 7.5, 300 mM NaCl, 100 µl at ~2 mg/ml, 0.5 ml/min, 20 °C

B1: Pseudomonas putida SQ dehydrogenase (PpSQDH) (enzyme, Pseudomonas putida SQ1)
chain: MNRHTDTHYPSLADKVVLISGGASGIGRAFVEAFVAQGSRVAFLDLDAEAGQGLAHALGANSLFLPCDVRDIERLKACVAEVERTWGAVDVLINNAARDDRHALADVSVEYWDERMQTNLRHAFFAAQAVAPGMARRGSGAIINMGSISWMRGRPGMVCYTTAKAALNGMTRTLARELGGQGIRINSLVPGAIRTERQDAMWAADPAGLEAASQAFIDQQMLKFRLDASDCARLALFLASDDSRGCTGQNFVVDAGLSIQ
notes: SQ dehydrogenase PpSQ1_00090 of Pseudomonas putida SQ1; Gln260 is the C-terminal residue; no step that removes the tag is described; A second preparation for kinetics was made in 'NEB T7 Express' E. coli (HisTrap, Superdex 75); also called sulfoquinovose dehydrogenase; PpSQ1_00090; source: E. coli BL21(DE3), purified (Ni-NTA IMAC, SEC)
In the case of B1, the “stoichiometry N” value is reported as 4.
